2 molecules from publication PMC5510000, “RPA activates the XPF‐ERCC1 endonuclease to initiate processing of DNA interstrand crosslinks” can be followed below.

The Kd is the equilibrium constant for the complex coming apart.

For this data set, the target named is RPA (full-length heterotrimer) (Homo sapiens, UniProt P27694;P15927;P35244 1-616;1-270;1-121). Kind of data set: fluorescence anisotropy; 1 mM MnCl2; Fluorescence anisotropy: nuclease buffer (composition and pH not in the material) with 1 mM MnCl2, RPA mixed 1:1 with 10 nM fluorescein-labelled DNA, 30 ul, room temperature, 10 min; sigmoidal fit. Particulars: protein: recombinant, copies: 1;1;1. For orientation: Polarisation of emitted light reports the rotation of a fluorescent probe.
Chain of RPA (full-length heterotrimer) (P27694 whole entry, chain 1 of 3): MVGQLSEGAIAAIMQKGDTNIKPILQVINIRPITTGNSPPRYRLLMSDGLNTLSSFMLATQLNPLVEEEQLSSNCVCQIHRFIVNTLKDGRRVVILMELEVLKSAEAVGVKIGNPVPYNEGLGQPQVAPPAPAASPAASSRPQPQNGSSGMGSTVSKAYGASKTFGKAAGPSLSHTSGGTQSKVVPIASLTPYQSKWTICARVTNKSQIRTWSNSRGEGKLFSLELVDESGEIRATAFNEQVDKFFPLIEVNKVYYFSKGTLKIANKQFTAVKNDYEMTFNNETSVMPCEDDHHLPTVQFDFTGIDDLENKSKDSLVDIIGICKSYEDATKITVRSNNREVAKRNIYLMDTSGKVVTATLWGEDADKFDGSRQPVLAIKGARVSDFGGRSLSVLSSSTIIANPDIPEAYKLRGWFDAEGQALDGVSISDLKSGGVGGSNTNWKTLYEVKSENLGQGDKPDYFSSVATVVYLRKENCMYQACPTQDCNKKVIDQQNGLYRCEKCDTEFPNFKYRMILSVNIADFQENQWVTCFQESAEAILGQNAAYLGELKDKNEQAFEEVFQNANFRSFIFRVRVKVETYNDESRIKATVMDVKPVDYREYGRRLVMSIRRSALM
Chain of RPA (full-length heterotrimer) (P15927 whole entry, chain 2 of 3): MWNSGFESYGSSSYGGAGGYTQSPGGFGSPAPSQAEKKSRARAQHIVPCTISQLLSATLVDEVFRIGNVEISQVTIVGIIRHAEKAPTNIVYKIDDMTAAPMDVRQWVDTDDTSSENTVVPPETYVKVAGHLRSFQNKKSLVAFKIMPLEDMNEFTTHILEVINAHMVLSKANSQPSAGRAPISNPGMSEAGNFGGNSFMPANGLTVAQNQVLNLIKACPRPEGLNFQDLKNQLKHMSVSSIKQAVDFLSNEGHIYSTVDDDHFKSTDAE
Chain of RPA (full-length heterotrimer) (P35244 whole entry, chain 3 of 3): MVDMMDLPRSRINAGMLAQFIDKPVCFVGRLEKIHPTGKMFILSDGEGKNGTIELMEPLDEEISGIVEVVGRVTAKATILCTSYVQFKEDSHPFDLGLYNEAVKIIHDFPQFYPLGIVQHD

B1: simple fork (mixed)
DNA 1: ATAAATATTTTTTATTAATAATAGATCACCTTTCTTTCTCTTCTCCCCTT
DNA 2: TTCCCCTCCTCTCCTTCCTTCCTGATCTATTATTAATAAAAAATATTTAT
For the molecule B1, the dissociation constant (Kd) (fork: 28 bp duplex, 22 nt 3' arm (strand 1) and 22 nt 5' arm (strand 2)) was found to be 6.3 nM.

B2: fork + lagging strand (mixed)
DNA 1: B1 DNA 1
DNA 2: B1 DNA 2
?: GGAAGGAAGGAGAGGAGGGGAA
For the molecule B2, the Kd (fork 1:2 2:3, 28 bp parental duplex, 22 bp lagging arm, 22 nt 3'-ssDNA arm on strand 1) stood at 6.2 nM.
